Source: patent publication US20190023770A1 (Genentech, published 2019)

B1: monoclonal antibody mAb9 01F3 (antibody, V domains shown)
VH: QVQLVQSGAEVKQPGASVKVSCKASGYTFNAYYIHWVRQAPGQGLEWMGWINPNFGGTHYARKFQGRVTMTRDASINTAYMELDRLISDDTAVYYCVRWRAAAVIMDQFYKMDVWGQGTLVTVSS
VL: SSELTQPPSASGTPGQRVTISCSGSTSNIGYNPVSWYQQVPGTAPKLLIYSNTERPSGVPDRFSGSKSGTSASLAISGLQSEDEADYYCAAWDDTLNGPVFGGGTKVTVL
B2: monoclonal antibody 36.89 (antibody, V domains shown)
VH: QVQLVQSGAELKRPGASVKVSCKTSGYSFNNYGINWVRQAPGQGLEWMGWISAYTGNTHYAKNFEGRVTLTTDTSTSTAYMEVRSLRSDDSAVYFCARAMIQGVVTLYLRPGDYWGQGTLVTVSS
VL: DIVMTQSPSTLSASVGDRVTITCRASQSIGNWLAWYQQKPGKAPKLLIYKVSTLESGVPSRFSGSGSGTEFTLTINSLQPDDFATYYCQRYTSNSQGFTFGQGTKLEIK
B3: monoclonal antibody mAb23 06C2 (antibody, V domains shown)
VH: QVQLQESGPGLVKPSETLSLTCTVSGGLIGTGSYYWGWIRQTPGKGMEWIGSISYSGSTYYHPSLKSRVTISDDTSKNQLFLKLRSVTAADTAQYYCARYNWGIRYFDFWGRGTLVTVSS
VL: DIQLTQSPLSPPVTLGQPASISCRSSQSLLYTDGFTYLSWYHQRPGQSPRRLIYKISNRDSGVPDRFSGSGSGTDFTLKISRVEAEDVGVYYCMQATHWPLTFGEGTKVEIK

What was measured:
[1] = molecular target: recombinant hemagglutinin H1 from influenza A virus A/NWS/1933 (influenza A virus A/NWS/1933 (printed …, UniProt P03454 18-528))
[2] = molecular target: recombinant hemagglutinin H3 from influenza A virus A/Hong Kong/8/1968 (influenza A virus A/Hong Kong/8/1968, UniProt Q91MA7 17-530)

Binder | EC50 [1] | EC50 [2]
B1 | > 200 nM | 8.42 nM
B2 | > 200 nM | 1.32 nM
B3 | > 200 nM | 1.84 nM
